Results on one protein are retold here after paper PMC5986058.

Substrate in this series: C[C@H](O)[C@H](N)C(=O)O
Nature of the series: purified protein. It counts as biochemical, Aeromonas jandaei. The following applies: 50 mM NaPi pH 8, 25 °C, 50 μM PLP.

B1: LTAaj (L-threonine aldolase from Aeromonas jandaei; L-allo-threonine aldolase) (Aeromonas jandaei) (protein)
chain: MRYIDLRSDTVTQPTDAMRQCMLHAEVGDDVYGEDPGVNALEAYGADLLGKEAALFVPSGTMSNLLAVMSHCQRGEGAVLGSAAHIYRYEAQGSAVLGSVALQPVPMQADGSLALADVRAAIAPDDVHFTPTRLVCLENTHNGKVLPLPYLREMRELVDEHGLQLHLDGARLFNAVVASGHTVRELVAPFDSVSICLSKGLGAPVGSLLVGSHAFIARARRLRKMVGGGMRQAGILAQAGLFALQQHVVRLADDHRRARQLAEGLAALPGIRLDLAQVQTNMVFLQLTSGESAPLLAFMKARGILFSGYGELRLVTHLQIHDDDIEEVIDAFTEYLGA
notes: C-terminal His-tag, expressed in E. coli BL21(DE3), Ni-NTA purified, homotetramer, PLP-dependent
B1: the Km stood at 500 µM, the kcat amounted to 8.67 s⁻¹ and the kcat/Km turned out to be 17000 M⁻¹ s⁻¹.
